Reference: patent US20260275319A1, “ARCHAEAL PEPTIDE RECOMBINASE – A NOVEL PEPTIDE LIGATING ENZYME” (MAX-PLANCK-GESELLSCHAFT ZUR FÖRDERUNG DER WISSENSCHAFTEN …, priority 2019, published 2026)

System: (15)KDPGA(10F) and PGA(10) peptides
Experiment: M. jannaschii Adriase peptide ligation rates with fluorescent peptides (SDS-PAGE/UV)
Assay type: biochemical
Experimental: To test this assumption, the Adriase reaction was performed with (X1)KDPGA(X2) peptides bearing a C-terminal fluorophore (SEQ ID NOs: 370-371 and 418; see also Table 6) and unmodified PGA(X3) synthetic peptides (SEQ ID NOs: 373-375; see Table 7) as model substrates. The recombination reaction is expected to result in the formation of a (X1)KDPGA(X3) fusion peptide, releasing the respective C-terminal peptides PGA(X2)(SEQ ID NOs: 414) with the C-terminal fluorescent label. The latter can be visualized in order to track the progress of the reaction.
For this purpose, ligations were performed and visualized as described above, except for the use of just 6 nM Adriase and the increasing concentrations of (15)KDPGA(10F) (SEQ ID NO: 418) and PGA(10)(SEQ ID NO: 374) peptides (2.5/5/10/20/40/80/160 µM of each peptide of the peptide pairs). The band intensity of the respectively fluorescently labeled PGA(10F)-peptide (see SEQ ID NO: 414), which is released by the ligation reaction was quantified using ImageJ v1.50i and subtracted from background signal in control reactions without PGA(10) peptide.
To determine how the reaction is influenced by recognition motif characteristics, ligation rates for other substrates were determined in the same manner, except for the use of 20 μM of the indicated substrates (see also Tables 6 and 7) and varying concentrations of Adriase (6/30/150/750 nM). […] In combination with the above experiments (FIGS. 9A and B), they provide the means to design substrates for efficient Adriase-mediated ligations.

B1: M. jannaschii Adriase: Methanocaldococcus jannaschii Adriase (MJ_0548) with C-terminal His6-tag (protein)
chain: SLIICYYGKNGAVIGGDRRQIFFRGSEENRKILEEKLYSGEIKSEEELYKLAEKLNIKIIIEDDREKVRKISDSVVCGEVRSLGIDAKRRRVYATKGKCAIVDILNDTVTNQTIKEGFGIVVLGNRFLKKKAEEELKRTAKLFPMMPIQQIEDAIKEIFEKLKWHPTVSKEYDIYSVNKYEKNFEEVIKKDIESLFKYREQLRKQLIDFGKVMSIVNKIVKNGEIGVIKDGKLHLYDDYIAIDKIDPNPKVFKVVDVEGNFKDGDIVVIENGDMKIKGTNEKVTTKYIIIHKGSHHHHHH
modifications: C-terminal His6-tag; M. jannaschii Adriase with C-terminal His-tag
maximum rate (6 nM Adriase, 85° C., equimolar substrates 2.5-160 μM, Michaelis-Menten model, single experiment): ~ 1.4 ligations per enzyme and second
ligation of (X1)KDPGA(X2) and PGA(X3) peptides (20 μM substrates, 6/30/150/750 nM Adriase, X1≥5 and X2=X3≥10): efficiently ligates
substrate concentration at half maximal reaction speed (each substrate, 6 nM Adriase, 85° C., Michaelis-Menten model): 23 µM
